In patent US20100285005A1 (Eli Lilly, published 2010):

Experiments:
[1] = target: human CXCR4 receptor with a C-terminal linear C9 peptide tag (human); assay: SPR (Biacore 2000), C9-tagged CXCR4 captured by 1D4 antibody, antibody injected, 4 °C
[2] = target: T1, human CXCR4, endogenous on human cells (CCRF-CEM leukemia cells; U937 histiocytic lymphoma cells) (human, UniProt P61073 1-352); assay: inhibition of 125I-SDF-1α binding to CCRF-CEM cells expressing endogenous CXCR4 (SPA); antibody III's own average value
T1 construct: whole, on cells
T1 sequence (P61073 whole entry): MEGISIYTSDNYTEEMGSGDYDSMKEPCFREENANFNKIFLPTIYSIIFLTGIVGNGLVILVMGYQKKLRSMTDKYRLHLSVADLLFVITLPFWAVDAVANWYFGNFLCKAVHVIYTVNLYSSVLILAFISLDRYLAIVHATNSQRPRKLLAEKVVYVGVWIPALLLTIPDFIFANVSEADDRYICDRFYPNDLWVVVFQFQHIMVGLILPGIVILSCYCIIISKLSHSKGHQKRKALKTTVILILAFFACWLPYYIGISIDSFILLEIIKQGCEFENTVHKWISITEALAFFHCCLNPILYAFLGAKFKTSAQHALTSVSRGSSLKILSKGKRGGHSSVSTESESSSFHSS
Description: SDF-1 binding to CXCR4 is the first step in activating the CXCR4 intracellular signaling pathway. To determine if an antibody can block the interaction of SDF-1 and CXCR4, human leukemia CCRF-CEM cells expressing endogenous CXCR4 are used in an ¹²⁵I-labeled SDF-1α binding assay. The assay is performed in a 96-well U-bottom, non-treated polystyrene plate. The binding assay buffer is prepared with RPMI 1640 medium containing 10 mM N-2-hydroxyethylpiperazine-N′-2-ethanesulfonic acid (HEPES), pH 7.5, and 0.2% bovine serum albumin (BSA). Briefly, 200 μL reaction mixtures containing 300 pM ligand (60 pM ¹²⁵I-SDF-1α and 240 pM cold SDF-1α), different concentrations of the test antibody in assay buffer, 100,000 human CCRF-CEM cells, and 0.5 mg scintillation proximity assay (SPA) beads are incubated at room temperature for 2 hours. Plates are then counted in a liquid scintillation and luminescence counter in SPA mode. CXCR4 antagonists decrease the bound radioactivity in this assay in a dose-dependent manner. The inhibitory potency (IC₅₀) of a test antibody is calculated using GraphPad Prism software, based on the dose-dependent decrease of bound radioactivity.

[3] = target: T1, human CXCR4, endogenous on human cells …; assay: cell-based or functional assay

B1: Antibody III (antibody, human IgG4 S228P, kappa, F234A L235A, V domains shown)
VH: EVQLVESGGGLVQPGGSLRLSCAASGFTSTDYYFSWVRQAPGKGLEWVGFIRYKSKGYTTEYSGSVKGRFTISRDDSKNSLYLQMNSLKTEDTAVYYCAREPITTDPRDYWGQGTLVTVSS
VL: DIVMTQSPDSLAVSLGERATINCKSSQSLFNSRTRKKYLAWYQQKPGQPPKLLIYWASKRKSGVPDRFSGSGSGTDFTLTISSLQAEDVAVYYCKQSRFLRAFGQGTKLEIKR
notes: Human engineered anti-CXCR4 antibody; also called the antibody III
Question: How did the Kd [1] turn out when B1 was run?
Answer: 1.54 nM

Question: What about the koff [1] of the same binder?
Answer: 0.00172 s⁻¹

Question: What about the kon [1] of the same binder?
Answer: 1.12e+06 M⁻¹ s⁻¹

Question: And the IC50 [2]?
Answer: 0.45 nM

B2: Antibody IV (antibody, human IgG4 S228P, kappa, F234A L235A, V domains shown)
VH: EVQLVESGGGLVQPGGSLRLSCAASGFTSTDYYFSWVRQAPGKGLEWVGFIRNKRKGYTTEYSGSVKGRFTISRDDSKNSLYLQMNSLKTEDTAVYYCAREPITTDPRDYWGQGTLVTVSS
VL: DIVMTQSPDSLAVSLGERATINCKSSQSLFNSRTRKKYLAWYQQKPGQPPKLLIYWASKRKSGVPDRFSGSGSGTDFTLTISSLQAEDVAVYYCKQSRFLRAFGQGTKLEIKR
Question: For B2, which “IC50, chemotaxis assay (SDF-1α-driven migration of U937 cells)” value (“IC50, chemotaxis assay” for short) [3] is on record?
Answer: ≤ 30 nM

Question: What about the Kd [1] of the same binder?
Answer: 5.14 nM

Question: What about the koff [1] of the same binder?
Answer: 0.00398 s⁻¹

Question: And the kon [1]?
Answer: 774000 M⁻¹ s⁻¹

B3: Antibody I (antibody, human IgG4 S228P, kappa, F234A L235A, V domains shown)
VH: EVQLVESGGGLVQPGGSLRLSCAASGFTSTDYYFSWVRQAPGKGLEWVGFIRTKSKGYTTEYSGSVKGRFTISRDDSKNSLYLQMNSLKTEDTAVYYCAREPITTDPRDYWGQGTLVTVSS
VL: DIVMTQSPDSLAVSLGERATINCKSSQSLFNSRTRKKYLAWYQQKPGQPPKLLIYWASKRKSGVPDRFSGSGSGTDFTLTISSLQAEDVAVYYCKQSRFLRAFGQGTKLEIKR
Question: With B3 as the binder, how does the “IC50, chemotaxis assay” value [3] read?
Answer: ≤ 30 nM

Question: And the Kd [1]?
Answer: 0.68 nM

Question: And the koff [1]?
Answer: 0.00161 s⁻¹

Question: What about the kon [1] of the same binder?
Answer: 2.36e+06 M⁻¹ s⁻¹

B4: Antibody II (antibody, human IgG4 S228P, kappa, F234A L235A, V domains shown)
VH: EVQLVESGGGLVQPGGSLRLSCAASGFTSTDYYFSWVRQAPGKGLEWVGFIRSKSKGYTTEYSGSVKGRFTISRDDSKNSLYLQMNSLKTEDTAVYYCAREPITTDPRDYWGQGTLVTVSS
VL: DIVMTQSPDSLAVSLGERATINCKSSQSLFNSRTRKKYLAWYQQKPGQPPKLLIYWASKRKSGVPDRFSGSGSGTDFTLTISSLQAEDVAVYYCKQSRFLRAFGQGTKLEIKR
Question: B4 was tested. Which “IC50, chemotaxis assay” value [3] did it give?
Answer: ≤ 30 nM

Question: And the Kd [1]?
Answer: 0.72 nM

Question: And the koff [1]?
Answer: 0.00181 s⁻¹

Question: And the kon [1]?
Answer: 2.5e+06 M⁻¹ s⁻¹

B5: Antibody V (antibody, human IgG4 S228P, kappa, F234A L235A, V domains shown)
VH: EVQLVESGGGLVQPGGSLRLSCAASGFTSTDYYFSWVRQAPGKGLEWVGFIRHKSKGYTTEYSGSVKGRFTISRDDSKNSLYLQMNSLKTEDTAVYYCAREPITTDPRDYWGQGTLVTVSS
VL: DIVMTQSPDSLAVSLGERATINCKSSQSLFNSRTRKKYLAWYQQKPGQPPKLLIYWASKRKSGVPDRFSGSGSGTDFTLTISSLQAEDVAVYYCKQSRFLRAFGQGTKLEIKR
Question: How did the “IC50, chemotaxis assay” value [3] turn out when B5 was run?
Answer: ≤ 30 nM

Question: And the Kd [1]?
Answer: 0.88 nM

Question: And the koff [1]?
Answer: 0.00168 s⁻¹

Question: And the kon [1]?
Answer: 1.91e+06 M⁻¹ s⁻¹
